B1: Pirin (Homo sapiens), O00625 (parent)
chain: MGSSKKVTLSVLSREQSEGVGARVRRSIGRPELKNLDPFLLFDEFKGGRPGGFPDHPHRGFETVSYLLEGGSMAHEDFCGHTGKMNPGDLQWMTAGRGILHAEMPCSEEPAHGLQLWVNLRSSEKMVEPQYQELKSEEIPKPSKDGVTVAVISGEALGIKSKVYTRTPTLYLDFKLDPGAKHSQPIPKGWTSFIYTISGDVYIGPDDAQQKIEPHHTAVLGEGDSVQVENKDPKRSHFVLIAGEPLREPVIQHGPFVMNTNEEISQAILDFRNAKNGFERAKTWKSKIGN
partner: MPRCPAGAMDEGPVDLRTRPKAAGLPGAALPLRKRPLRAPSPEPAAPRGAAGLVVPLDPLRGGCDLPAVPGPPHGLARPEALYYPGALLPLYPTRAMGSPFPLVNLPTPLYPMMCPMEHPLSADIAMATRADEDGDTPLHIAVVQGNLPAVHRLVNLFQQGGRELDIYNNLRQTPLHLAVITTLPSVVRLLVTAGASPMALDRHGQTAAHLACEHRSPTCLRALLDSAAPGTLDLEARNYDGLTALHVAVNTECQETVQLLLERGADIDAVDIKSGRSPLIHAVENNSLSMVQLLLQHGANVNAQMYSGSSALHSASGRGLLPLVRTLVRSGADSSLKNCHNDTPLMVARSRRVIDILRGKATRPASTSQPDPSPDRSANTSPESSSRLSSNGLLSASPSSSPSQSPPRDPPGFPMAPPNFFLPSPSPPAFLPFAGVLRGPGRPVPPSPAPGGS

Variants of: B1
Conditions: with bcl3_human BCL3, P20749

Variant | effect of a mutation on the interaction
E103A | disrupting interaction

Reference: IntAct's records for PubMed 25680527
